B1: Centrosomal protein of 55 kDa (Homo sapiens), Q53EZ4 (parent)
chain: MSSRSTKDLIKSKWGSKPSNSKSETTLEKLKGEIAHLKTSVDEITSGKGKLTDKERHRLLEKIRVLEAEKEKNAYQLTEKDKEIQRLRDQLKARYSTTTLLEQLEETTREGERREQVLKALSEEKDVLKQQLSAATSRIAELESKTNTLRLSQTVAPNCFNSSINNIHEMEIQLKDALEKNQQWLVYDQQREVYVKGLLAKIFELEKKTETAAHSLPQQTKKPESEGYLQEEKQKCYNDLLASAKKDLEVERQTITQLSFELSEFRRKYEETQKEVHNLNQLLYSQRRADVQHLEDDRHKTEKIQKLREENDIARGKLEEEKKRSEELLSQVQFLYTSLLKQQEEQTRVALLEQQMQACTLDFENEKLDRQHVQHQLHVILKELRKARNQITQLESLKQLHEFAITEPLVTFQGETENREKVAASPKSPTAALNESLVECPKCNIQYPATEHRDLLVHVEYCSK
partner: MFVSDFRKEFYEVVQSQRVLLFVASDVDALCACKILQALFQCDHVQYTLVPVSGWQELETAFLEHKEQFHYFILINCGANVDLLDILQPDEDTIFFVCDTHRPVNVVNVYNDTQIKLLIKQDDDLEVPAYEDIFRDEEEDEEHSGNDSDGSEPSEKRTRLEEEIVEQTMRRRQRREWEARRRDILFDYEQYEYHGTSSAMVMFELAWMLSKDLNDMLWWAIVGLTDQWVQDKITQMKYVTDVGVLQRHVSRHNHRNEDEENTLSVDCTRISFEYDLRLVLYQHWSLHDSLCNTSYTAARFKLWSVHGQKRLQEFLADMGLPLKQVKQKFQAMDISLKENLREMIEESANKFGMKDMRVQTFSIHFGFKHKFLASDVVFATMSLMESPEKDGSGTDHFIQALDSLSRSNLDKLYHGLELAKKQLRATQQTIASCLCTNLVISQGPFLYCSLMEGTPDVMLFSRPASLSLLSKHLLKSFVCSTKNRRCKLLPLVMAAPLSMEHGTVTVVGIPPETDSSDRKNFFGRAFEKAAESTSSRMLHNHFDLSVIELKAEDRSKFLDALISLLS
B2: WASH complex subunit 3 (Homo sapiens), Q9Y3C0 (parent)
chain: MDEDGLPLMGSGIDLTKVPAIQQKRTVAFLNQFVVHTVQFLNRFSTVCEEKLADLSLRIQQIETTLNILDAKLSSIPGLDDVTVEVSPLNVTSVTNGAHPEATSEQPQQNSTQDSGLQESEVSAENILTVAKDPRYARYLKMVQVGVPVMAIRNKMISEGLDPDLLERPDAPVPDGESEKTVEESSDSESSFSD
partner: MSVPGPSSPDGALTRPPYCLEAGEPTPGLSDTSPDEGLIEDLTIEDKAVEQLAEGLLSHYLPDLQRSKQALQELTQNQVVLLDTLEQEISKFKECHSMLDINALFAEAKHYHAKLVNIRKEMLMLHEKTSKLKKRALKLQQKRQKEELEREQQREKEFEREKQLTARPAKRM
B3: Microtubule-associated tumor suppressor candidate 2 (Homo sapiens), Q5JR59-3 (parent)
chain: MGHCCCKPYNCLQCLDKTNESALVKEKELSIELANIRDEVAFHTAKCEKLQKEKEELERRFEDEVKRLGWQQQAELQELEERLQLQFEAEMARLQEEHGDQLLSIRCQHQEQVEDLTASHDAALLEMENNHTVAITILQDDHDHKVQELMSTHELEKKELEENFEKLRLSLQDQVDTLTFQSQSLRDRARRFEEALRKNTEEQLEIALAPYQHLEEDMKSLKQVLEMKNQQIHEQEKKILELEKLAEKNIILEEKIQVLQQQNEDLKARIDQNTVVTRQLSEENANLQEYVEKETQEKKRLSRTNEELLWKLQTGDPTSPIKLSPTSPVYRGSSSGPSSPARVSTTPR
partner: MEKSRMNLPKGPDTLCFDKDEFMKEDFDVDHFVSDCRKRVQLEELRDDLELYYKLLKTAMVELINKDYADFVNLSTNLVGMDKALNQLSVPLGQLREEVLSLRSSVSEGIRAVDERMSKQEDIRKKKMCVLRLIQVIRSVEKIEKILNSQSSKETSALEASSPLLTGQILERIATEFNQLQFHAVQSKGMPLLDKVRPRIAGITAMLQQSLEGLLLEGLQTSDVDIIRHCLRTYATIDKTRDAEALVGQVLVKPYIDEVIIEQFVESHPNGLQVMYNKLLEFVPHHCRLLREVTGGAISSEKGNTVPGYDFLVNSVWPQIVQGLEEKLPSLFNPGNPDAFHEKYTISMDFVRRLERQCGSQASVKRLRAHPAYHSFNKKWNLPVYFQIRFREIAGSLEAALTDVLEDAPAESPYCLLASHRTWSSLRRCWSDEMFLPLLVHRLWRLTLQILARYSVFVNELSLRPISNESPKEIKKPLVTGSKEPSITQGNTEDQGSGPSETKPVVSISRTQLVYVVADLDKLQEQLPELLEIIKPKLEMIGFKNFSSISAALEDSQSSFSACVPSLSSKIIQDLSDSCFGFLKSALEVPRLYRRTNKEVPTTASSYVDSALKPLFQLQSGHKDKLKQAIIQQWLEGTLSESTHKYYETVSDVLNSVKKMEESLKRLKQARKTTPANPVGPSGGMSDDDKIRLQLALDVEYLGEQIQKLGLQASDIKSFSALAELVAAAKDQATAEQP
B4: Sperm-associated microtubule inner protein 4 (Homo sapiens), Q8N865 (parent)
chain: MEVIHGRPYCCRELEGADILSNTFYSNELHNPLQTVTRPTASEDRYQELRESLQQCRLPWGAEREYGGIIPISLPEDHRPKYEPPRVMGKGHQHYGFGGETWPRKLPVEQFYYLTQNKKSDVYGNDSLIPKPPNSTVGEICLPYPIEHPYHTHICRGAMFPTFTSPEDLYTGIKARTQQPFPPTVPTKAYDSTVLKTRGNPYRYELIDIPMDSKKKALTWPGQGVYYDFPRGVEKNKPVFYPKPPKTFAPNTSLNSWDPICSAKEANIQRNLERSHWLTSYTHDFTGLGPMDPLELDDYHEKMVAELTRKIGFDPEPQEKFHPVFKPPRPLEGRIARLIQNRRSLEAIVQQRPRSCPDCTPRVLCNFHTFVPSSKEMVALSDNIPAGVTHKNQDIEEKIIEEQSLLSTYELPSCYPTKDLTSIYDIKPFPKITDTKKTEDLYWRQQSLKTQPTPYCKPDHWIHYENLKSPLRDQYNMCPDPVSLSKPSVLQNKQDTEAFTLEHFLSKPEEELFLNMENNEETRPVLGWIPRAGVTKPQTNLLELKNSFSKTGAQKRFHKSILEDHKDLRDNEHSGMKHQFYGHNSYYFYN
partner: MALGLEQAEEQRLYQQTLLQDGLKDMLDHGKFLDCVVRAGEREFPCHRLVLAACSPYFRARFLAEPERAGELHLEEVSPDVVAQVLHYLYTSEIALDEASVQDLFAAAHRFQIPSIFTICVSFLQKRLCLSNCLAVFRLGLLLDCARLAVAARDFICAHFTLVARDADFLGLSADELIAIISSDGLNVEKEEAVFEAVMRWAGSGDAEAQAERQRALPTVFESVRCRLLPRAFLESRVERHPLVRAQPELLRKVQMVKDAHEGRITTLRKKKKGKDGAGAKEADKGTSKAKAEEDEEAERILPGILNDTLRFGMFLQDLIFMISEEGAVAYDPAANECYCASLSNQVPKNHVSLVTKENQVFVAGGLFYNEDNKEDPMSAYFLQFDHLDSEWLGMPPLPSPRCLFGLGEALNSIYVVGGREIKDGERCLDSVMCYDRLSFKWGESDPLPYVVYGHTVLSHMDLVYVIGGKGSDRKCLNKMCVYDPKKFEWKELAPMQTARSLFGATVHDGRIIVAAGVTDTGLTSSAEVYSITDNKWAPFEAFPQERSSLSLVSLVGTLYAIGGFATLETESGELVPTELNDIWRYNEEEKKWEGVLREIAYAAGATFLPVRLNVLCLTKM

Variants of: B1
Settings: with cdc45_human CDC45, O75419

effect of a mutation on the interaction | Variant
with no effect | A244P
with no effect | C236R
with no effect | R348K

Variants of: B2
Settings: with bl1s6_human BLOC1S6, Q9UL45

effect of a mutation on the interaction | Variant
with no effect | F44L

Variants of: B3
Settings: with cog2_human COG2, Q14746

effect of a mutation on the interaction | Variant
with no effect | A89V

Variants of: B4
Settings: with klh40_human KLHL40, Q2TBA0

effect of a mutation on the interaction | Variant
with no effect | A158T
